Common to all, as to test: SIMPL ELISA, bait-IN/prey-CIC
A general note: ELISA stands for enzyme-linked immunosorbent assay.

Assay [1] concerns the target CD58 (prey, CIC format) (human) (UniProt P19256).
In assay [2] the target is GTF2F2 (prey, CIC format) (human) (UniProt P13984).
Assay [3] has as its target HGS (prey, CIC format) (human) (UniProt O14964).
In assay [4] the target is LGALS3BP (prey, CIC format) (human) (UniProt Q08380).
For assay [5], the target named is LSM2 (prey, CIC format) (human) (UniProt Q9Y333).
Sequence of LSM2 (prey, CIC format) (human) (Q9Y333 whole entry): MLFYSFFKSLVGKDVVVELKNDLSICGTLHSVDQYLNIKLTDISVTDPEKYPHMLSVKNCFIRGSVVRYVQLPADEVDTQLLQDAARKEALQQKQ
The target in assay [6] is PDGFRB (prey, CIC format) (human) (UniProt P09619).
Sequence of PDGFRB (prey, CIC format) (human) (P09619 33-1106 limits assumed): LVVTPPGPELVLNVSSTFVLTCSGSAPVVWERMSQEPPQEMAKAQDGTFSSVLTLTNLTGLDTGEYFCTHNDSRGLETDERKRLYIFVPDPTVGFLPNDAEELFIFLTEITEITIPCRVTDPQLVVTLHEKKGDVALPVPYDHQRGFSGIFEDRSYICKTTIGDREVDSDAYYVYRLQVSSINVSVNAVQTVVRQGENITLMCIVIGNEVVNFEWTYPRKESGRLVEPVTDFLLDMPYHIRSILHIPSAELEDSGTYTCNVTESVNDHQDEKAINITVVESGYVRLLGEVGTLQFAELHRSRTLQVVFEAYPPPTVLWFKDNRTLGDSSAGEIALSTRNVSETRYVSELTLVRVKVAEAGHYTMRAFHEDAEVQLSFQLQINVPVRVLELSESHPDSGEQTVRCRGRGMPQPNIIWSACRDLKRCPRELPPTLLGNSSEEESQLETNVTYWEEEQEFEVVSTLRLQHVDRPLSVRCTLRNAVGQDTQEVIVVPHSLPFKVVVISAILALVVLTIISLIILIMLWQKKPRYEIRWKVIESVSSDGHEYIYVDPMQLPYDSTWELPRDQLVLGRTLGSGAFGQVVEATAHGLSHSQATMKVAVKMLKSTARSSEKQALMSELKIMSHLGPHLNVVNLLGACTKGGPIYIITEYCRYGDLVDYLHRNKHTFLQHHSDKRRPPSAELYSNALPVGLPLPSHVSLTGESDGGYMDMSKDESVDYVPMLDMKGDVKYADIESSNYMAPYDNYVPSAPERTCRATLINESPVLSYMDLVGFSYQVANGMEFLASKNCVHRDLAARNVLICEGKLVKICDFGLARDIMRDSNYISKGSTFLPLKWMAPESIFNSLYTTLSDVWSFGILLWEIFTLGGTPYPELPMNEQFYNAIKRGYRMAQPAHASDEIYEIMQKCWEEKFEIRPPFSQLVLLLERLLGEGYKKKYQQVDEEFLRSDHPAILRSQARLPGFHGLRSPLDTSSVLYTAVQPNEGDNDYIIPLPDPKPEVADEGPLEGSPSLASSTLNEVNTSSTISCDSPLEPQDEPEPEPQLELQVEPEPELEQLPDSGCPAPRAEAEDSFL
Assay [7] concerns the target UBE2I (prey, CIC format) (human) (UniProt P63279).
In assay [8] the target is CRADD (prey, CIC format) (human) (UniProt P78560).
Sequence of CRADD (prey, CIC format) (human) (P78560 whole entry): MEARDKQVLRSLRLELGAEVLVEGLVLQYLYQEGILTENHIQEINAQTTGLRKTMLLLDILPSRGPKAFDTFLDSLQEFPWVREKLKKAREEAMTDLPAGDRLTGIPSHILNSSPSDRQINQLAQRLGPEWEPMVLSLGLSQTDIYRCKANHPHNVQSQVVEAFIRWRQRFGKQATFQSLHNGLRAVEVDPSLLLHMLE
In assay [9] the target is NCK1 (prey, CIC format) (human) (UniProt P16333).
The target in assay [10] is T1, VAV1 (prey, CIC format) (human) (UniProt P15498).
T1 sequence (looked up): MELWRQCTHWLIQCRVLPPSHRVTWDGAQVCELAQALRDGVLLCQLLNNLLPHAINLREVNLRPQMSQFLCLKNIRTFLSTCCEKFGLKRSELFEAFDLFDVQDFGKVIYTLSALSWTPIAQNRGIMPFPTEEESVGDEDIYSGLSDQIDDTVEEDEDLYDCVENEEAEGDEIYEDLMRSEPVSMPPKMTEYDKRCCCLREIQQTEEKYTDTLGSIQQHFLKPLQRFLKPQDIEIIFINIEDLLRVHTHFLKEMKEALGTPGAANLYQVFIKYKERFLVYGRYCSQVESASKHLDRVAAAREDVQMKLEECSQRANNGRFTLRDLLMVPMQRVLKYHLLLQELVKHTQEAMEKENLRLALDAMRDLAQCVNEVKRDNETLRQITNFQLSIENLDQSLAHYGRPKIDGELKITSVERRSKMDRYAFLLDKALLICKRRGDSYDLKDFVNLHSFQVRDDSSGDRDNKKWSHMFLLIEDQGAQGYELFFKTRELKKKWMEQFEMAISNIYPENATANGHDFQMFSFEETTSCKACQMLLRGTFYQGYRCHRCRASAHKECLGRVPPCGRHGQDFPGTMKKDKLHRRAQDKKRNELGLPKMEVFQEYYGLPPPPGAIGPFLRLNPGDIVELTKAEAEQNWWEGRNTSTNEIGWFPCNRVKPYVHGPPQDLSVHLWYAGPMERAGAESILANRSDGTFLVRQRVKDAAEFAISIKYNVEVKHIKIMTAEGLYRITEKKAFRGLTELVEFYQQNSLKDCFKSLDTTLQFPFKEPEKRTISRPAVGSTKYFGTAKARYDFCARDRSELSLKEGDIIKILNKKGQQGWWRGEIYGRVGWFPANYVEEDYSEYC

Assay [11] deals with PTK2 (prey, CIC format) (human) (UniProt Q05397).
Sequence of PTK2 (prey, CIC format) (human) (Q05397 whole entry): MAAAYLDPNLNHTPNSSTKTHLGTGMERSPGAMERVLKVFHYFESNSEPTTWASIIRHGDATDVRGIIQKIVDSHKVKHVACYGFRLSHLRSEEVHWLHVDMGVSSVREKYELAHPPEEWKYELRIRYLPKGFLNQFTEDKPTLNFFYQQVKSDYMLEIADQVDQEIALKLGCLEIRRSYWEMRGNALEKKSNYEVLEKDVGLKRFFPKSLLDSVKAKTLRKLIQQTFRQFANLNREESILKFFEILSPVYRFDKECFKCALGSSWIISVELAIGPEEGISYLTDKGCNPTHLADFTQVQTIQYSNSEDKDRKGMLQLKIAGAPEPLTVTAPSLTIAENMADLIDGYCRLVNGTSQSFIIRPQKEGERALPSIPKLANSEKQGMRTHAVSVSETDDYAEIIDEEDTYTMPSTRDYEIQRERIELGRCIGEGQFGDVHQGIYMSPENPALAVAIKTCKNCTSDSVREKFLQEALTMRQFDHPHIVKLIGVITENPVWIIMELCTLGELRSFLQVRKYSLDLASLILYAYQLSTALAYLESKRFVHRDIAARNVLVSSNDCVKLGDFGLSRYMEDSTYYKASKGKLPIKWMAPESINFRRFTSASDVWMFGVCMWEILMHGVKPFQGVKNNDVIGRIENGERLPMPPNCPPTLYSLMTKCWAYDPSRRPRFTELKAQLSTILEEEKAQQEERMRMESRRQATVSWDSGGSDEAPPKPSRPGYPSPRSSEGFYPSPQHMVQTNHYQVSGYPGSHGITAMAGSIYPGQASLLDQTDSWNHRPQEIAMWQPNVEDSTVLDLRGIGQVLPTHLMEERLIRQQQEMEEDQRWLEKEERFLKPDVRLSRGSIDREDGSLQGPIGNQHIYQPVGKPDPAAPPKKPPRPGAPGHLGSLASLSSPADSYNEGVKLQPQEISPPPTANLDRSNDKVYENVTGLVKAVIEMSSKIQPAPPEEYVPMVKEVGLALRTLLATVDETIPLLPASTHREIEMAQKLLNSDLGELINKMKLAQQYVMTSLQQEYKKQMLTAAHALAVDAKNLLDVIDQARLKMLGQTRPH
Assay [12] has as its target S100A7 (prey, CIC format) (human) (UniProt P31151).
In assay [13] the target is FGFR1 (prey, CIC format) (human) (UniProt P11362).
Assay [14] concerns the target T2, NOD1 (prey, CIC format) (human) (UniProt Q9Y239).
T2 sequence (looked up): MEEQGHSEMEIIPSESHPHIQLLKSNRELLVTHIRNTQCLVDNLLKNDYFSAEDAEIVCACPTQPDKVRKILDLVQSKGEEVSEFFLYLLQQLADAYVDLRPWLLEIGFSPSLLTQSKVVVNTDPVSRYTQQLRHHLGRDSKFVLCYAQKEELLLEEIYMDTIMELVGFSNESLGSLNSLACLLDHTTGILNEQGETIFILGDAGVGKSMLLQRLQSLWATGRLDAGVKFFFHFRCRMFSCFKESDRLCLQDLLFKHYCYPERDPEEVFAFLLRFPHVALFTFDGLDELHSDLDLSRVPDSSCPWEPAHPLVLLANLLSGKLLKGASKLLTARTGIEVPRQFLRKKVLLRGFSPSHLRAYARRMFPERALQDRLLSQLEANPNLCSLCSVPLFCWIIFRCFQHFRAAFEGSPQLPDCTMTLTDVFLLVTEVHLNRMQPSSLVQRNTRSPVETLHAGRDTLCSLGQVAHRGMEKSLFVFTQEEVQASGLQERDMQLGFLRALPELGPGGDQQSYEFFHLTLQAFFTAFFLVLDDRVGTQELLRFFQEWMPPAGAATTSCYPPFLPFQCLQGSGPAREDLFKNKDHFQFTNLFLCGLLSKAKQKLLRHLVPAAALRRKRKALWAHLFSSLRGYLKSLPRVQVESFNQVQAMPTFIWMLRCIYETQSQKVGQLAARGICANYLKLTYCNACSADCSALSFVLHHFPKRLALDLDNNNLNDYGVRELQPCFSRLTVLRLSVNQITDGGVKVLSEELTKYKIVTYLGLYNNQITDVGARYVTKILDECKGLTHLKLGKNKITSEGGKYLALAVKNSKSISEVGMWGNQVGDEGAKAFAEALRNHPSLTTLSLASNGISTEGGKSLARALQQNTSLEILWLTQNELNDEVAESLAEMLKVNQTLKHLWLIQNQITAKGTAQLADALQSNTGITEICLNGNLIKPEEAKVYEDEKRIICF

Assay [15] addresses EZR (prey, CIC format) (human) (UniProt P15311).
The target of assay [16] is SRC (prey, CIC format) (human) (UniProt P12931).
Assay [17] concerns the target RPA3 (prey, CIC format) (human) (UniProt P35244).
The target in assay [18] is GRB2 (prey, CIC format) (human) (UniProt P62993).
In assay [19] the target is SMAD4 (prey, CIC format) (human) (UniProt Q13485).
In assay [20] the target is RAD23A (prey, CIC format) (human) (UniProt P54725).
Sequence of RAD23A (prey, CIC format) (human) (P54725 whole entry): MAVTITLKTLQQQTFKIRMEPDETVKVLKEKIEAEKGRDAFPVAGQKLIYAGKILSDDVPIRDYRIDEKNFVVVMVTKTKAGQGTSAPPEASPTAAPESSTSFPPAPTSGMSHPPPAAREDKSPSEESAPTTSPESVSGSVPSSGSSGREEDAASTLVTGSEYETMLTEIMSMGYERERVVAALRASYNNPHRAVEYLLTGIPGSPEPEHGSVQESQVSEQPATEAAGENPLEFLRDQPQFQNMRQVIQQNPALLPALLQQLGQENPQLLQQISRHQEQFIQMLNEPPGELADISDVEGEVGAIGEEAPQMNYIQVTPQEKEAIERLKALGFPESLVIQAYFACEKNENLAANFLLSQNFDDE
For assay [21], the target named is TCL1A (prey, CIC format) (human) (UniProt P56279).
For assay [22], the target named is T3, NRG1 (prey, CIC format) (human) (UniProt Q02297).
T3 sequence (looked up): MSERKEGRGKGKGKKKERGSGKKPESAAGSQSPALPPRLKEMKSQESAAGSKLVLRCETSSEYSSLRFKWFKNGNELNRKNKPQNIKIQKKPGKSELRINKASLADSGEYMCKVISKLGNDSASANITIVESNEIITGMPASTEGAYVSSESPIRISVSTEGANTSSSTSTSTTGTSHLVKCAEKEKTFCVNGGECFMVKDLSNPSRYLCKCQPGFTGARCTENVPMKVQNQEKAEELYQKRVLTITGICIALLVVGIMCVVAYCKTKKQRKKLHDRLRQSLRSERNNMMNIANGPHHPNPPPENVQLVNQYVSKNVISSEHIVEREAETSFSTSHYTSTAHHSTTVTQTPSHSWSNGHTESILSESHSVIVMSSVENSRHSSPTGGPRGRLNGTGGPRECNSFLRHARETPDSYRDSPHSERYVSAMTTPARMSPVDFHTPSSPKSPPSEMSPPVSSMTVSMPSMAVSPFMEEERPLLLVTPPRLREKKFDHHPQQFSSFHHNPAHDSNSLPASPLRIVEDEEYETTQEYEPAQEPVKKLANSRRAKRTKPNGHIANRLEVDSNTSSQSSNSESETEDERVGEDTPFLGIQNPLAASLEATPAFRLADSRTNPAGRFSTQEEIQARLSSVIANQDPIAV

Assay [23] concerns the target T4, PEX19 (prey, CIC format) (human) (UniProt P40855).
T4 sequence (looked up): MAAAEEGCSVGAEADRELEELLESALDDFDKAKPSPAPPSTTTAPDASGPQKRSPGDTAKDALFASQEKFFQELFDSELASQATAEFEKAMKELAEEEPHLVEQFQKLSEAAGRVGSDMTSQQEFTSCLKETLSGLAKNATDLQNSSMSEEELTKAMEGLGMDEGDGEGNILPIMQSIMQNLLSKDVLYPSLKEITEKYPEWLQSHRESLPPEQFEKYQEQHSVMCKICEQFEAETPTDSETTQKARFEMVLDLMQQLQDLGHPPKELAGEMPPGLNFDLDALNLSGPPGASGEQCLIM

Assay [24] concerns the target CDK6 (prey, CIC format) (human) (UniProt Q00534).
Assay [25] concerns the target T5, LAT (prey, CIC format) (human) (UniProt O43561).
T5 sequence (looked up): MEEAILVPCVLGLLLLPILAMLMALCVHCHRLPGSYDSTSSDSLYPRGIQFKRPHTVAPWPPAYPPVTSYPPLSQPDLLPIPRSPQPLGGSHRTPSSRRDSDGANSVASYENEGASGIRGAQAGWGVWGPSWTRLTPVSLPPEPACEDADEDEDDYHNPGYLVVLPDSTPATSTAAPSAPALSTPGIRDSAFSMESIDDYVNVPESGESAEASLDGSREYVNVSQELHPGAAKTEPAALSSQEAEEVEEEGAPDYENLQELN

The target in assay [26] is T6, PEX3 (prey, CIC format) (human) (UniProt P56589).
T6 sequence (looked up): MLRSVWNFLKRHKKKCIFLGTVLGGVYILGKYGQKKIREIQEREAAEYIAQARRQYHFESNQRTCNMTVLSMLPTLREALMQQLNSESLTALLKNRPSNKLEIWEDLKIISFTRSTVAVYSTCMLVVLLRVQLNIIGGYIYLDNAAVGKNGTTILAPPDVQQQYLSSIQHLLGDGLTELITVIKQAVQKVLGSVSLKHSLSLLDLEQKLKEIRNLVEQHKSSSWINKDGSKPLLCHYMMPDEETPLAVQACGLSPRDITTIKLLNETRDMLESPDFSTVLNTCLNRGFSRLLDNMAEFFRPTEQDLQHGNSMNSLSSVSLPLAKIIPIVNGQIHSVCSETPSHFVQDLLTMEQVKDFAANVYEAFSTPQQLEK

Sequence of GTF2F2 (prey, CIC format) (human) (P13984 whole entry): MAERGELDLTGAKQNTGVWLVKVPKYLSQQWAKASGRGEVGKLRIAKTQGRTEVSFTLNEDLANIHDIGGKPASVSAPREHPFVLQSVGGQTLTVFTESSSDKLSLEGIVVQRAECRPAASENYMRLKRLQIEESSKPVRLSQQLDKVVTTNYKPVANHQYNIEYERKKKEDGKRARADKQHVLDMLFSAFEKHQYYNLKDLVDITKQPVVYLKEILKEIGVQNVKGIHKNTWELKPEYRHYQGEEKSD
Sequence of CASP2 (bait, IN format) (P42575 whole entry): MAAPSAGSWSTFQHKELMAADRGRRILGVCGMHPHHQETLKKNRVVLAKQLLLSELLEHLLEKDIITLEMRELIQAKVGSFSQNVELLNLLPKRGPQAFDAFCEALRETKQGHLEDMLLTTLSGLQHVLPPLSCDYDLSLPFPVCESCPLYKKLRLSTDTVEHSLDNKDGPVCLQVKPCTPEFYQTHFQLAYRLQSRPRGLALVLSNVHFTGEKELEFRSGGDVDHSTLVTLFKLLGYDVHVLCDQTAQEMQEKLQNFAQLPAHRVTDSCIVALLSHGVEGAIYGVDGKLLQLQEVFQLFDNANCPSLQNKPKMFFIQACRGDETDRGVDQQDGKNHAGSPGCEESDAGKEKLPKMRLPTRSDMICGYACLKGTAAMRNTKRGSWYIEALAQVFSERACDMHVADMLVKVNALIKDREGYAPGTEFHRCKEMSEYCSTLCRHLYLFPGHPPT
Sequence of UBE2I (prey, CIC format) (human) (P63279 whole entry): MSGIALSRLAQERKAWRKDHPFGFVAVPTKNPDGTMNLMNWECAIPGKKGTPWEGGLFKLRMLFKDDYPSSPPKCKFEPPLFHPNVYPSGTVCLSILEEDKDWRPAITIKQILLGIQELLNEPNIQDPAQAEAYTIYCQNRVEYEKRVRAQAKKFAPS
Sequence of S100A7 (prey, CIC format) (human) (P31151 whole entry): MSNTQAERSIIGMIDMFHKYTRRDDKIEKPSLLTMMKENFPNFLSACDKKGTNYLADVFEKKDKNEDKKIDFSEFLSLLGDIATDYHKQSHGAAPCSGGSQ
Sequence of LGALS3BP (prey, CIC format) (human) (Q08380 19-585 limits assumed): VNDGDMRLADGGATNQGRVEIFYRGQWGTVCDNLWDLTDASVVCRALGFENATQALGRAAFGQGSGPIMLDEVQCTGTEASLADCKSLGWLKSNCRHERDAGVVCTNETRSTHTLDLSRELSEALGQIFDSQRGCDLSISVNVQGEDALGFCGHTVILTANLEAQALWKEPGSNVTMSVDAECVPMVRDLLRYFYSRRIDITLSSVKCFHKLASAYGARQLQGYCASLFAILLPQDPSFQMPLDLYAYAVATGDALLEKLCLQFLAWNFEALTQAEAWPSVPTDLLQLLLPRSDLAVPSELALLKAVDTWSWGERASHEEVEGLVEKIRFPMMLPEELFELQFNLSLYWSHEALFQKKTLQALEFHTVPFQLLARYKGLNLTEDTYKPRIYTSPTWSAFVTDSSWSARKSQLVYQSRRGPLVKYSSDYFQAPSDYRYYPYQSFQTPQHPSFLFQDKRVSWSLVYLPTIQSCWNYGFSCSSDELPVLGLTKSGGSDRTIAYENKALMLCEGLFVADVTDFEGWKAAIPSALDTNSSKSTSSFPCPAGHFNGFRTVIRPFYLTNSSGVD
Sequence of EZR (prey, CIC format) (human) (P15311 whole entry): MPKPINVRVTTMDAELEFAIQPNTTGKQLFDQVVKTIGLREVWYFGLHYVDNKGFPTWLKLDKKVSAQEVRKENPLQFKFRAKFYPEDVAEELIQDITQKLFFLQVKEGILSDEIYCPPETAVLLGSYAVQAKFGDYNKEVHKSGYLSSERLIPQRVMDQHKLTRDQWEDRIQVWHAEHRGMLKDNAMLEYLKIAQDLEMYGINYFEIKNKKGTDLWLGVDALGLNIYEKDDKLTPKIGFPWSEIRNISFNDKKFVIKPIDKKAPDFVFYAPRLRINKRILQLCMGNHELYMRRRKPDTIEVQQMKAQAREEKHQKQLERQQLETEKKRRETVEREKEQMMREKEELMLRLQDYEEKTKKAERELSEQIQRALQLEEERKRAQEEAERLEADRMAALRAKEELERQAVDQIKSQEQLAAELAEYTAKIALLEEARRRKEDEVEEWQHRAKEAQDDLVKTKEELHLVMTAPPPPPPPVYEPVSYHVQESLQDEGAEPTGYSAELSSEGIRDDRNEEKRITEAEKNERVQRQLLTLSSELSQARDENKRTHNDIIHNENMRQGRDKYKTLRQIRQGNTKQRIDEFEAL

As to “CD2 (bait, IN format) (from UniProt P06729 25-351) (receptor)”, the PLU mean in assay [1] worked out at 0.972; in assay [2] it was 0.299; in [3], 0.253.
For “LGALS3 (bait, IN format) (from UniProt P17931 1-250)”, the figures for the PLU mean in assay [4] and in assay [5] were 0.248 and 0.162, respectively.
“CRK (bait, IN format) (from UniProt P46108 1-304)”: the PLU mean in assay [6] is 0.261; in assay [7], 0.153.
For “TP53 (bait, IN format) (from UniProt P04637 1-393)”, the PLU mean in assay [7] came out at 0.194.
With “LCP2 (bait, IN format) (from UniProt Q13094 1-533)”, the figures for the PLU mean in assay [8], in [9] and in [10] were 0.193, 0.662 and 0.789, respectively.
Turning to “FABP5 (bait, IN format) (from UniProt Q01469 1-135)”, the PLU mean was found to be 0.174 in [11] and 0.134 in assay [12].
Consider “LSM3 (bait, IN format) (from UniProt P62310 1-102)”, for which the PLU mean in [13] was determined as 0.272; in assay [4], 0.129; in [5], 3.03.
As to “GTF2F1 (bait, IN format) (from UniProt P35269 1-517)”, the PLU mean came out at 3.24 in assay [2] and 0.133 in assay [14].
Turning to “PRKAR2A (bait, IN format) (from UniProt P13861 1-404)”, the PLU mean in assay [15] was 0.123; in [16], 0.186.
In the case of “RPA2 (bait, IN format) (from UniProt P15927 1-270)”, the values for the PLU mean in [17] and in assay [12] were 2.72 and 0.0606, respectively.
Regarding “SMAD1 (bait, IN format) (from UniProt Q15797 1-465)”, the PLU mean is 0.151 in [18] and 0.182 in [19].
In the case of “PSMD4 (bait, IN format) (from UniProt P55036 1-377)”, the PLU mean came out at 0.845 in assay [14], 0.919 in assay [20] and 0.108 in [21].
Turning to “PEX14 (bait, IN format) (from UniProt O75381 1-377)”, the PLU mean was 0.31 in [22] and 2.17 in [23].
“CCND3 (bait, IN format) (from UniProt P30281 1-292)” had a PLU mean in assay [24] of 2.72.
Regarding “GRB2 (bait, IN format) (from UniProt P62993 1-217)”, the PLU mean was found to be 0.223 in assay [25], 0.0588 in assay [26], 0.741 in assay [11] and 1.39 in assay [10].
Take “CASP2 (bait, IN format) (from UniProt P42575 1-452)”: the PLU mean in [8] was determined as 2.45; in assay [10], 0.696.

The record behind these values is patent US20220229068A1, “DETECTION OF PROTEIN TO PROTEIN INTERACTIONS” (THE GOVERNING COUNCIL OF THE UNIVERSITY OF TORONTO, priority 2019, published 2022).
